According to paper PMC10195817, “Autophagy receptor NDP52 alters DNA conformation to modulate RNA polymerase II transcription” (Nature Communications, 2022):
Where “and” joins values, the source holds several entries; their conditions need not be identical. Equal values may be shown once. Each block holds one binder with its values, some of them ahead of it.

Legend:
MST = target: the molecule itself; assay: MST
[1] = target: the molecule itself; assay: SEC-MALS; 100 ul at 1 mg/ml (NDP52-FL, CoCoA) or 5 mg/ml (NNDP52, CNDP52, ZFs); Superdex 200 (30 x 1 cm); 50 mM Tris pH 7.5, 150 mM NaCl, 1 mM DTT; room temperature
[2] = target: the molecule itself; assay: MST; RED-tris-NTA labelled protein at 50 nM, unlabelled protein of the same construct titrated from 10 uM (16-step serial dilution), PBS, 15 min at room temperature; Monolith NT.115; oligomerisation, step of the constant not told
[3] = target: T1, NNDP52 (N-terminal truncated region of NDP52, amino acid residues 1-190) (UniProt Q13137 1-190); assay: MST
T1 chain: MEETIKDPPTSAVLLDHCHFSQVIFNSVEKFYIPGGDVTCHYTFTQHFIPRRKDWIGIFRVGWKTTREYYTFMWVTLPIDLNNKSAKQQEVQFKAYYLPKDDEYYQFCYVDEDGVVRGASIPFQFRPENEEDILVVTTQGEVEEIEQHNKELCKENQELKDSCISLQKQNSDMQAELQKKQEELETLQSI

[4] = target: the molecule itself; assay: AFM imaging; purified protein adsorbed on mica (poly-L-lysine), imaged in liquid, PeakForce Tapping; monomers and oligomers counted by hand
NDP52-FL [5] = target: T2, NDP52-FL (Human, UniProt Q13137 1-446); assay: fluorescence titration, competition; with and without ss40 competitor; Fluorescence: 100 nM DNA, 50 mM Tris-HCl pH 7.5, 150 mM NaCl, 1 mM DTT; EMSA: 50 mM Tris-HCl pH 7.5, 50 mM NaCl, 3 mM MgCl2, 5 min; temperature not stated; conditions: protein: recombinant; tags: His-tag (pET151); chain copies: 2; label: 3' FAM (called FITC in Methods) on strand 1 for fluorescence; blunt
T2 sequence: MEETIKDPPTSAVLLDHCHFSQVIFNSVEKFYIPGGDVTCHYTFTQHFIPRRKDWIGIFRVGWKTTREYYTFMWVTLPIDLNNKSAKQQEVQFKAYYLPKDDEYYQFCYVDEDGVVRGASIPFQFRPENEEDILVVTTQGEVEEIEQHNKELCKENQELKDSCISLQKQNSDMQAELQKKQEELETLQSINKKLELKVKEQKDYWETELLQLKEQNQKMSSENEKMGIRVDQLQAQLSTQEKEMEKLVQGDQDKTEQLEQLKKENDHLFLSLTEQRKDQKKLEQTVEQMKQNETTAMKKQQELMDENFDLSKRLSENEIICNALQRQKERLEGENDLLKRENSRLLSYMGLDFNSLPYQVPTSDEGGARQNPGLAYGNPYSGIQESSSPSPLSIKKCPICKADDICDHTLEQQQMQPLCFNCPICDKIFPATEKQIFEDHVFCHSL

NDP52-FL [6] = target: T2, NDP52-FL; assay: fluorescence titration; Fluorescence: 100 nM DNA, 50 mM Tris-HCl pH 7.5, 150 mM NaCl, 1 mM DTT; EMSA: 50 mM Tris-HCl pH 7.5, 50 mM NaCl, 3 mM MgCl2, 5 min; temperature not stated; conditions: protein: recombinant, tags: His-tag (pET151), chain copies: 2, blunt
CoCoA = target: T3, CoCoA (Human, UniProt Q9P1Z2 1-691); assay: fluorescence titration; high affinity; Fluorescence: 100 nM DNA, 50 mM Tris-HCl pH 7.5, 150 mM NaCl, 1 mM DTT; EMSA: 50 mM Tris-HCl pH 7.5, 50 mM NaCl, 3 mM MgCl2, 5 min; temperature not stated; conditions: protein: recombinant, tags: His-tag (pET151), chain copies: 2, blunt
T3 sequence: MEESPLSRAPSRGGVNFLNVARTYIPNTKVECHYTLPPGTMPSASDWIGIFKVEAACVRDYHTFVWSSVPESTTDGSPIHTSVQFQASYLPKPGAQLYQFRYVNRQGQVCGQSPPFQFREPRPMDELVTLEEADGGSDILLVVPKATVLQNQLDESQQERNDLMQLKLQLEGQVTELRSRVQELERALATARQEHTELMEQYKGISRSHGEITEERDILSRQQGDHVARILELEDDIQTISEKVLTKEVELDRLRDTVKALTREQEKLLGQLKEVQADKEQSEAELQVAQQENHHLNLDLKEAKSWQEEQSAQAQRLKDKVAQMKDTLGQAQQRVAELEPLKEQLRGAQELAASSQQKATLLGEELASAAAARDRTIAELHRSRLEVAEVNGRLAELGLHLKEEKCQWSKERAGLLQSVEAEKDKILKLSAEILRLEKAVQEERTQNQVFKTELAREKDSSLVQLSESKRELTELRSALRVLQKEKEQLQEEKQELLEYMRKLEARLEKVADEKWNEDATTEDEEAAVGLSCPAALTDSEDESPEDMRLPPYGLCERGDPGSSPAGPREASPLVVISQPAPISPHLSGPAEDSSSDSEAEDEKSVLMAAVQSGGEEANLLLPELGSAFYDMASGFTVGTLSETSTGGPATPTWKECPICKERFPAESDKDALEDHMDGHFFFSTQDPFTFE

[7] = target: T4, NDP52-FL (full-length NDP52/CALCOCO2), Q13137; assay: mass photometry; NDP52-FL alone, 50 mM Tris-HCl pH 7.5, 150 mM NaCl, OneMP mass photometer; results say 100 nM, methods say diluted to 10 nM; conditions: remark: other sources report otherwise
T4 chain: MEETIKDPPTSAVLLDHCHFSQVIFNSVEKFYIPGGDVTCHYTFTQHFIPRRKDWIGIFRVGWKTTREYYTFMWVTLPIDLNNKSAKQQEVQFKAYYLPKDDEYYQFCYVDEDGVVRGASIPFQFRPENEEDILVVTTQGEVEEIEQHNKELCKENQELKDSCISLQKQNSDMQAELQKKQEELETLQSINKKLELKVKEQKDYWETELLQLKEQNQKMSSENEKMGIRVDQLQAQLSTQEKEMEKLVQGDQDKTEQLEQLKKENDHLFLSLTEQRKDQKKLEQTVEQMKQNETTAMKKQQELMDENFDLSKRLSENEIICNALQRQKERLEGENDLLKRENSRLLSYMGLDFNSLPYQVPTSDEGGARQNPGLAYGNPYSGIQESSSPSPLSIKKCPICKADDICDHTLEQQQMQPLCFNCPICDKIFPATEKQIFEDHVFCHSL

[8] = target: T4, NDP52-FL (full-length NDP52/CALCOCO2), …; assay: MST; RED-tris-NTA labelled protein at 50 nM, unlabelled protein of the same construct titrated from 10 uM (16-step serial dilution), PBS, 15 min at room temperature; Monolith NT.115; oligomerisation, step of the constant not told; conditions: remark: other sources report otherwise
[9] = target: T4, NDP52-FL (full-length NDP52/CALCOCO2), …; assay: AFM imaging; purified protein adsorbed on mica (poly-L-lysine), imaged in liquid, PeakForce Tapping; monomers and oligomers counted by hand; conditions: remark: other sources report otherwise
[10] = target: T4, NDP52-FL (full-length NDP52/CALCOCO2), …; assay: SEC-MALS; 100 ul at 1 mg/ml (NDP52-FL, CoCoA) or 5 mg/ml (NNDP52, CNDP52, ZFs); Superdex 200 (30 x 1 cm); 50 mM Tris pH 7.5, 150 mM NaCl, 1 mM DTT; room temperature; conditions: remark: other sources report otherwise
[11] = label: 3' FAM (called FITC in Methods) on strand 1 for fluorescence
[12] = label: 3' FAM (called FITC in Methods) on strand 1

B1: NNDP52 (N-terminal truncated region of NDP52, amino acid residues 1-190) (domain or fragment, UniProt Q13137 1-190, looked up)
chain: MEETIKDPPTSAVLLDHCHFSQVIFNSVEKFYIPGGDVTCHYTFTQHFIPRRKDWIGIFRVGWKTTREYYTFMWVTLPIDLNNKSAKQQEVQFKAYYLPKDDEYYQFCYVDEDGVVRGASIPFQFRPENEEDILVVTTQGEVEEIEQHNKELCKENQELKDSCISLQKQNSDMQAELQKKQEELETLQSI
notes: NDP52/CALCOCO2, SKICH domain and part of the coiled-coil region, amino acid residues 1-190; also called N-terminal region of NDP52; source: E. coli BL21 DE3, purified (HisTrap FF, Superdex 200 SEC)
- Kd (MST): 170 nM
- stoichiometry N [1]: 2

- Kd [3]: 110 nM
B2: CNDP52 (C-terminal region of NDP52, amino acid residues 365-446) (domain or fragment, UniProt Q13137 365-446, looked up)
chain: EGGARQNPGLAYGNPYSGIQESSSPSPLSIKKCPICKADDICDHTLEQQQMQPLCFNCPICDKIFPATEKQIFEDHVFCHSL
notes: NDP52/CALCOCO2, a section of the coiled-coil and both zinc finger domains, amino acid residues 365-446; source: E. coli BL21 DE3, purified (HisTrap FF, Superdex 200 SEC)
- Kd [2]: 50 ± 6 nM
- stoichiometry N [1]: 3
- stoichiometry N [4]: 2

B3: ZFs (the two zinc finger domains of NDP52, amino acid residues 380-446) (domain or fragment, UniProt Q13137 380-446, looked up)
chain: YSGIQESSSPSPLSIKKCPICKADDICDHTLEQQQMQPLCFNCPICDKIFPATEKQIFEDHVFCHSL
notes: NDP52/CALCOCO2, zinc finger domains ZF1 and ZF2, amino acid residues 380-446; also called ZFs domain; source: E. coli BL21 DE3, purified (HisTrap FF, Superdex 200 SEC)
- Kd [2]: 180 ± 17 nM
- stoichiometry N [1]: 2 and 3

B4: ds40 (dsDNA)
DNA 1: TTAGTTGTTCGTAGTGCTCGTCTGGCTCTGGATTACCCGC
DNA 2: GCGGGTAATCCAGAGCCAGACGAGCACTACGAACAACTAA
- Kd (NDP52-FL [5]): < 100 nM
- Kd (NDP52-FL [6]; [11]): < 100 nM
- binding result (CoCoA; [11]): binds

- stoichiometry N [7]: 2 and 3
- Kd [8]: 210 nM
- percent of molecules in an oligomeric state [9]: 15%
- stoichiometry N [9]: 2
- stoichiometry N [10]: 2 and 3 and 4
B5: NDP52-FL (full-length NDP52/CALCOCO2), Q13137 1-446 (natural protein)
chain: MEETIKDPPTSAVLLDHCHFSQVIFNSVEKFYIPGGDVTCHYTFTQHFIPRRKDWIGIFRVGWKTTREYYTFMWVTLPIDLNNKSAKQQEVQFKAYYLPKDDEYYQFCYVDEDGVVRGASIPFQFRPENEEDILVVTTQGEVEEIEQHNKELCKENQELKDSCISLQKQNSDMQAELQKKQEELETLQSINKKLELKVKEQKDYWETELLQLKEQNQKMSSENEKMGIRVDQLQAQLSTQEKEMEKLVQGDQDKTEQLEQLKKENDHLFLSLTEQRKDQKKLEQTVEQMKQNETTAMKKQQELMDENFDLSKRLSENEIICNALQRQKERLEGENDLLKRENSRLLSYMGLDFNSLPYQVPTSDEGGARQNPGLAYGNPYSGIQESSSPSPLSIKKCPICKADDICDHTLEQQQMQPLCFNCPICDKIFPATEKQIFEDHVFCHSL

B6: ds15 (dsDNA)
DNA 1: TTAGTTGTTCTCTGG
DNA 2: CCAGAGAACAACTAA
- Kd (NDP52-FL [6]; [12]): < 100 nM
- binding result (CoCoA; [12]): binds

B7: CoCoA (recombinant) (natural protein, UniProt Q9P1Z2 1-691, looked up)
chain: MEESPLSRAPSRGGVNFLNVARTYIPNTKVECHYTLPPGTMPSASDWIGIFKVEAACVRDYHTFVWSSVPESTTDGSPIHTSVQFQASYLPKPGAQLYQFRYVNRQGQVCGQSPPFQFREPRPMDELVTLEEADGGSDILLVVPKATVLQNQLDESQQERNDLMQLKLQLEGQVTELRSRVQELERALATARQEHTELMEQYKGISRSHGEITEERDILSRQQGDHVARILELEDDIQTISEKVLTKEVELDRLRDTVKALTREQEKLLGQLKEVQADKEQSEAELQVAQQENHHLNLDLKEAKSWQEEQSAQAQRLKDKVAQMKDTLGQAQQRVAELEPLKEQLRGAQELAASSQQKATLLGEELASAAAARDRTIAELHRSRLEVAEVNGRLAELGLHLKEEKCQWSKERAGLLQSVEAEKDKILKLSAEILRLEKAVQEERTQNQVFKTELAREKDSSLVQLSESKRELTELRSALRVLQKEKEQLQEEKQELLEYMRKLEARLEKVADEKWNEDATTEDEEAAVGLSCPAALTDSEDESPEDMRLPPYGLCERGDPGSSPAGPREASPLVVISQPAPISPHLSGPAEDSSSDSEAEDEKSVLMAAVQSGGEEANLLLPELGSAFYDMASGFTVGTLSETSTGGPATPTWKECPICKERFPAESDKDALEDHMDGHFFFSTQDPFTFE
notes: CoCoA, member of the CALCOCO family, recombinant; source: E. coli BL21 DE3, purified (HisTrap FF, Superdex 200 SEC)
- Kd [2]: 85 nM
- stoichiometry N [1]: 2
